B1: HEEH_KT_rd6_3632 (parent)
chain: DAEELIELVERALKEGREIILLGVRITSEEAGKWFIEWIRRFL

Variants of: B1
Experiment: folding stability dG (cDNA display proteolysis); higher = more stable
Conditions: PBS, room temperature

Variant | folding stability dG
I26S | 3.07 kcal/mol
G23N | 3.31 kcal/mol
I36F | 3.44 kcal/mol
I19K | 2.94 kcal/mol
L8Q | 3.49 kcal/mol
E15M | 3.68 kcal/mol
V24P | 3.03 kcal/mol
I36P | 2.59 kcal/mol
W38N | 2.8 kcal/mol
I19N | 2.86 kcal/mol
L22N | 3.05 kcal/mol
W34G | 3.11 kcal/mol
G16Q | 3.42 kcal/mol
I20E | 3.32 kcal/mol
E7Q | 3.79 kcal/mol
W38M | 3.32 kcal/mol
L5F | 3.6 kcal/mol
W34M | 3.61 kcal/mol
L22M | 3.53 kcal/mol
D1F | 4.2 kcal/mol
F35I | 3.85 kcal/mol
L5N | 2.72 kcal/mol
V24R | 3 kcal/mol
I26T | 3.49 kcal/mol

Variant | folding stability dG
A12I | 3.73 kcal/mol
E10Y | 3.81 kcal/mol
K14W | 3.5 kcal/mol
V24F | 3.9 kcal/mol
V9S | 2.75 kcal/mol
A12G | 3.21 kcal/mol
R40D | 2.87 kcal/mol
R11K | 3.65 kcal/mol
D1T | 4 kcal/mol
E3S | 3.74 kcal/mol
R40Y | 3.69 kcal/mol
E37M | 3.83 kcal/mol
A12V | 3.55 kcal/mol
V9A | 3.19 kcal/mol
K33N | 3.52 kcal/mol
E18P | 3.64 kcal/mol
W38V | 2.96 kcal/mol
K33S | 3.39 kcal/mol
G32P | 3.39 kcal/mol
E15R | 3.38 kcal/mol
I36A | 3.35 kcal/mol
E10C | 4.65 kcal/mol
I36K | 3.26 kcal/mol
E10P | 2.64 kcal/mol

Variant | folding stability dG
T27I | 3.9 kcal/mol
F35A | 3.03 kcal/mol
E7H | 3.84 kcal/mol
R40Q | 3.32 kcal/mol
E3D | 3.85 kcal/mol
R25F | 3.79 kcal/mol
L43H | 3.17 kcal/mol
E3Y | 4.02 kcal/mol
E3H | 4.02 kcal/mol
R11L | 3.47 kcal/mol
D1R | 4.12 kcal/mol
R41L | 3.81 kcal/mol
E4N | 3.78 kcal/mol
I39T | 2.46 kcal/mol
E18G | 3.58 kcal/mol
E10F | 3.69 kcal/mol
I19G | 2.96 kcal/mol
E30N | 3.56 kcal/mol
I19S | 2.75 kcal/mol
I19W | 3.44 kcal/mol
I6R | 3.38 kcal/mol
L22S | 3.1 kcal/mol
E10G | 3.28 kcal/mol
L13C | 4.96 kcal/mol

Variant | folding stability dG
E30M | 3.86 kcal/mol
V9Y | 2.87 kcal/mol
D1E | 3.63 kcal/mol
S28H | 3.36 kcal/mol
E18A | 3.74 kcal/mol
L43T | 3.24 kcal/mol
E4D | 3.65 kcal/mol
E15N | 3.57 kcal/mol
I36L | 3.52 kcal/mol
T27K | 3.59 kcal/mol
A31P | 3.15 kcal/mol
E7M | 3.82 kcal/mol
I26G | 2.89 kcal/mol
R25V | 3.64 kcal/mol
G16T | 3.36 kcal/mol
I20N | 3.08 kcal/mol
G16E | 3.1 kcal/mol
G23A | 3.67 kcal/mol
I6G | 3.18 kcal/mol
G23V | 3.88 kcal/mol
A12F | 3.42 kcal/mol
K33C | 3.99 kcal/mol
L43F | 4.01 kcal/mol
E29W | 4.1 kcal/mol

Variant | folding stability dG
I39P | 2.22 kcal/mol
L8N | 2.93 kcal/mol
I39N | 2.64 kcal/mol
T27D | 4.05 kcal/mol
G32T | 3.64 kcal/mol
I39F | 3.46 kcal/mol
V24T | 3.25 kcal/mol
A12N | 3.13 kcal/mol
E10H | 3.78 kcal/mol
K14Q | 3.56 kcal/mol
S28C | 3.83 kcal/mol
E10D | 3.41 kcal/mol
E4R | 4.21 kcal/mol
G16P | 3.26 kcal/mol
T27R | 3.52 kcal/mol
R17H | 3.54 kcal/mol
R17G | 3.3 kcal/mol
R11D | 3.28 kcal/mol
G32L | 4.17 kcal/mol
E30F | 3.76 kcal/mol
E3V | 3.78 kcal/mol
A2I | 4.2 kcal/mol
K33Y | 3.61 kcal/mol
L13G | 2.96 kcal/mol

Variant | folding stability dG
A2D | 3.4 kcal/mol
G32N | 3.38 kcal/mol
R11W | 3.66 kcal/mol
E37D | 3.57 kcal/mol
I26H | 3.09 kcal/mol
I6S | 3.18 kcal/mol
L5W | 3.67 kcal/mol
R41N | 3.57 kcal/mol
L13M | 3.67 kcal/mol
I26N | 3.21 kcal/mol
I26P | 3.18 kcal/mol
G16Y | 3.67 kcal/mol
K33G | 3.34 kcal/mol
F35K | 3.08 kcal/mol
R17L | 3.9 kcal/mol
E37G | 3.42 kcal/mol
W38G | 2.34 kcal/mol
L43D | 2.75 kcal/mol
R25L | 3.81 kcal/mol
V24N | 2.99 kcal/mol
V9M | 3.45 kcal/mol
R41P | 2.84 kcal/mol
F42Q | 3.29 kcal/mol
E15L | 3.58 kcal/mol

Variant | folding stability dG
L8G | 3.03 kcal/mol
A12P | 2.88 kcal/mol
G32M | 4.07 kcal/mol
R40S | 3.27 kcal/mol
A31K | 3.6 kcal/mol
R40V | 3.48 kcal/mol
R40P | 2.68 kcal/mol
G23I | 3.87 kcal/mol
L22H | 3.12 kcal/mol
R41S | 3.72 kcal/mol
D1S | 3.98 kcal/mol
E29D | 3.67 kcal/mol
S28G | 3.83 kcal/mol
L43V | 3.48 kcal/mol
K14N | 3.52 kcal/mol
W34E | 3.41 kcal/mol
E15D | 3.7 kcal/mol
L22Y | 3.22 kcal/mol
I20S | 3.18 kcal/mol
I19D | 2.66 kcal/mol
I19P | 2.74 kcal/mol
S28T | 3.71 kcal/mol
R41Y | 3.81 kcal/mol

From the MegaScale stability set (Tsuboyama et al. 2023)
